The record followed here is US20220242962A1 (APTEVO RESEARCH AND DEVELOPMENT, published 2022).

Where two headings read alike, the source gives them in different places.

Assay [1] addresses T1, Full-length Human OX40 (human, UniProt P43489 29-277).
T1 sequence: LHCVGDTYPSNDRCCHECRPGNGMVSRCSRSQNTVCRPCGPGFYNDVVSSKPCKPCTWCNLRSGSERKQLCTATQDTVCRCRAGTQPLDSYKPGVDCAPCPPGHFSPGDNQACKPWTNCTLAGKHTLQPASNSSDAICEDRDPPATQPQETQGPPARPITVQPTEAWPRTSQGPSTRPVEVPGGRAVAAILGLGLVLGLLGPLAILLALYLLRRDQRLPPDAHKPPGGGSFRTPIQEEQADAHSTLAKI
Nature of the assay: cell-based or functional assay.

Assay [2] deals with T2, Full-length Human 4-1BB (human, UniProt Q07011 24-255). The assay is described as follows: cell-based or functional assay.
The target of assay [3] is T1, Full-length Human OX40. The assay is described as follows: flow cytometry, CHO cells expressing human OX40. As to the method: (§1) FIGS. 12A-12D show the binding of anti-4-1BB x anti-OX40 constructs, with additional humanization in 4-1BB and altered orientations of binding domains, human (12A) or cynomolgus (12C) 4-1BB-expressing Jurkat cells or human (12B) or cynomolgus (12D) OX40-expressing CHOK1SV cells. Serial dilutions of ADAPTIR™ constructs were incubated with transfected cells and subsequently labelled with a fluorescently-conjugated goat-a-human Fc secondary antibody. […] (See Example 19.)
(§2) Binding studies were performed using the flow cytometry-based staining procedures described above.
In general terms: Flow cytometry measures light scatter and fluorescence of single cells or particles in a stream.

Assay [4] addresses T3, Human OX40 ECD-AFH (human).
T3 construct: ECD'; entry includes the C-terminal tags; also called OXF003; Human OX40 ECD-avi-flag-his
T3 chain: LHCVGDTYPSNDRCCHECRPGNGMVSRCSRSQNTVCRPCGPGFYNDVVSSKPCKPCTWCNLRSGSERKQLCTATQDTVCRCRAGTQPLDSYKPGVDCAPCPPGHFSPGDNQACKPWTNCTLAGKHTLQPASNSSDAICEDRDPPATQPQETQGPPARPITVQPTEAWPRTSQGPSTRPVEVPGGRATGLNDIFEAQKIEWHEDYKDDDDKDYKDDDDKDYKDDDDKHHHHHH
Nature of the assay: SPR, construct captured, monomeric ECD as analyte. As to the method: (§3) Mouse anti-human IgG (GE, BR-1008-39) at 25 μg/ml in 10 mM sodium acetate pH 5.0 was immobilized at a density of ˜10,000 response units (RU) onto each flow cell of a CM5 research-grade sensor chip (GE) by standard amine coupling chemistry. Each binding protein at approximately 100 nM in HBS-EP+ with 0.2% BSA buffer was captured in a flow cell with the immobilized anti-human IgG at a flow rate of 10 μL/min for 20 seconds, leaving one flow cell surface unmodified as the reference. Using a single-cycle kinetics mode, five different concentrations of ECD were sequentially injected through each flow cell at 30 μL/min for 300 seconds followed by a 600 second dissociation period. Regeneration was achieved by injection of 3 M MgCl₂ at a flow rate of 30 μL/min for 30 seconds followed by HBS-EP+ with 0.2% BSA buffer stabilization for 1 min.
(§4) Sensorgrams obtained from kinetic SPR measurements were analyzed by the double subtraction method. The signal from the reference flow cell was subtracted from the analyte binding response obtained from flow cells with immobilized or captured ligands. Buffer reference responses were then averaged from multiple injections. The averaged buffer reference responses were then subtracted from analyte binding responses, and the final double-referenced data were analyzed with Biacore T200 Evaluation software (2.0, GE), globally fitting data to derive kinetic parameters. All sensorgrams were fitted using a simple one-to-one binding model.
(§5) Protein was produced by transient expression, purified by ProA chromatography and prep SEC.
For orientation: Surface plasmon resonance follows binding to a sensor surface in real time, without labels.

In assay [5] the target is T4, Human 4-1BB ECD-AFH (human).
T4 construct: entry includes the tags; also called FOB003; HUMAN CD137 ECD-AVI-FLAG-HIS
Nature of the assay: SPR, construct captured, monomeric ECD as analyte. As to the method:
as §3, §4, §5

In assay [6] the target is T2, Full-length Human 4-1BB. The assay is described as follows: flow cytometry, Jurkat cells expressing human 4-1BB. On the procedure:
as §1, §2

The target in assay [7] is T5, Full-length Cyno 4-1BB (cynomolgus monkey, UniProt Q07011 24-255 (human entry)).
T5 construct: on Jurkat or CHO cells; also called FOB006; cynomolgus 4-1BB
T5 chain: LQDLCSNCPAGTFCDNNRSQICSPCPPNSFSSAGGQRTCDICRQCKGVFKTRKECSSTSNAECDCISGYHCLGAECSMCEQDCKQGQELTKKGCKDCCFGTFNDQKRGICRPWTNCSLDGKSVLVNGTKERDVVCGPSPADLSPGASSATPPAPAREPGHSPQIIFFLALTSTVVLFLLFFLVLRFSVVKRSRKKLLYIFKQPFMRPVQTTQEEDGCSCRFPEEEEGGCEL
Nature of the assay: flow cytometry on Jurkat cells transfected with cynomolgus 4-1BB, goat anti-human Fc secondary antibody, MFI (Mean). As to the method: as §1, §2

The target of assay [8] is T6, Full-length Cyno OX40 (cynomolgus monkey, UniProt P43489 29-277 (human entry)).
T6 construct: on CHO-K1SV cells; also called OXF004; cynomolgus OX40
T6 chain: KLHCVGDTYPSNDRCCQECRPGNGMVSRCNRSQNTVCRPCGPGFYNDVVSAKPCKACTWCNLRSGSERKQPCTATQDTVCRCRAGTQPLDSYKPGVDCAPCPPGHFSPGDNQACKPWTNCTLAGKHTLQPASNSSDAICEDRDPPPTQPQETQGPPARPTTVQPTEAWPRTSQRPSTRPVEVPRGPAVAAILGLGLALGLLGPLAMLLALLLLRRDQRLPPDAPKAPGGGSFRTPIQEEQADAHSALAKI
Nature of the assay: flow cytometry on CHOK1SV cells transfected with cynomolgus OX40, goat anti-human Fc secondary antibody, MFI (Mean). As to the method:
as §1, §2

The target in assay [9] is T1, Full-length Human OX40. The assay is described as follows: cell-based or functional assay. The source holds these as a separate data set.
Assay [10] has as its target T2, Full-length Human 4-1BB. Nature of the assay: cell-based or functional assay. The source holds these as a separate data set.
Assay [11] deals with T3, Human OX40 ECD-AFH. The assay is described as follows: SPR (Biacore 8K), construct captured, monovalent ECD. On the procedure:
as §3, §4
(§6) Using the BIACORE 8K SPR system, the affinity of these constructs for human and cyno 4-1BB, and human and cyno OX40 ECD, were determined using the methods described above. Monovalent binding affinity was determined by capturing the ADAPTIR™ bispecific construct on the chip and injecting monovalent ECD of the target at multiple concentrations.

The next assay concerns the target T7, Cyno OX40-AFH (cynomolgus monkey).
T7 construct: entry includes the tags; also called OXF005; cyno OX40 ECD
T7 chain: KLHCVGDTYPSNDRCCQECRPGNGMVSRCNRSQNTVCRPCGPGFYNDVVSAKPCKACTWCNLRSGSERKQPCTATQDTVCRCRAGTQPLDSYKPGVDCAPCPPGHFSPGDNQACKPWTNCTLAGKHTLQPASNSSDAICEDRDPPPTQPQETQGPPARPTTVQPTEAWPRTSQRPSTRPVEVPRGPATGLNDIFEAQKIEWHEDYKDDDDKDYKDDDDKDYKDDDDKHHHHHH
The assay is described as above. As to the method:
as §3, §4, §6

In assay [12] the target is T4, Human 4-1BB ECD-AFH. The assay is described as above. On the procedure: as §3, §4, §6
For a further assay, the target named is T8, Cyno 4-1BB ECD-AFH (cynomolgus monkey).
T8 construct: entry includes the tags; also called FOB004; Cyno CD137 ECD-avi-flag-his
T8 chain: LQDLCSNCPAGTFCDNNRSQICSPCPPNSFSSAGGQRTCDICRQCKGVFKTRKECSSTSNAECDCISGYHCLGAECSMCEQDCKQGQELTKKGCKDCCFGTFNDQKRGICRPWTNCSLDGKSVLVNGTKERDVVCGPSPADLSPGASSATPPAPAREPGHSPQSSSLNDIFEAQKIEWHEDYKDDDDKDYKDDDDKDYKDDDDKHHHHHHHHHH
The assay is described as above. As to the method: as §3, §4, §6

The target in assay [13] is T5, Full-length Cyno 4-1BB. The assay is described as follows: flow cytometry on Jurkat cells transfected with cynomolgus 4-1BB, goat anti-human Fc secondary antibody, MFI (Mean). On the procedure: (§7) Serial dilutions of ADAPTIR™ constructs were incubated with transfected target cells and subsequently labelled with a fluorescently-conjugated goat-a-human Fc secondary antibody. […] (See Example 25.)

The target of assay [14] is T6, Full-length Cyno OX40. The assay is described as follows: flow cytometry on CHOK1SV cells transfected with cynomolgus OX40, goat anti-human Fc secondary antibody, MFI (Mean). As to the method:
as §7

B1: FXX01099 (bispecific antibody)
chain: EVQLVQSGAEVKKPGASVKVSCKASGYTFTSYWMNWVRQAPGQGLEWMGNIYPSGGSTNYAQKFQGRVTMTVDTSTSTVYMELSSLRSEDTAVYYCASFSDGYYAYAMDYWGQGTLVTVSSGGGGSGGGGSGGGGSGGGGSEIVMTQSPATLSLSPGERATLSCRASQSVSSYLNWYQQKPGQAPRLLIYYASRRHTGIPARFSGSGSGTDFTLTISSLQPEDFAVYYCQQGYNLPYTFGQGTKVEIKEPKSSDKTHTCPPCPAPPAAAPSVFLFPPKPKDTLMISRTPEVTCVVVDVSHEDPEVKFNWYVDGVEVHNAKTKPREEQYNSTYRVVSVLTVLHQDWLNGKEYKCAVSNKALPAPIEKTISKAKGQPREPQVYTLPPSRDELTKNQVSLTCLVKGFYPSDIAVEWESNGQPENNYKTTPPVLDSDGSFFLYSKLTVDKSRWQQGNVFSCSVMHEALHNHYTQKSLSLSPGGGGSPSSYVLTQPPSVSVAPGKTARITCGGNNIGSKSVNWFQQKPGQAPVLVVYDDSGRPSGIPERFSGSTSGNTATLTISRVEAGDEADYYCQVWDSSSDHVVFGGGTKLTVLGGGGSGGGGSGGGGSGGGGSQVQLVESGGGVVQPGRSLRLSCAASGFTLSYYGMHWVRQAPGKGLEWVAAISHDGSDKYYADSVKGRFTISRDNSKNTLYLQMNSLRAEDTAVYYCSNDQFDPWGQGTLVTVSSR
notes: ADAPTIR anti-4-1BB (HL) x anti-OX40 with Q17K; also called FX01099
B1: in the assay with Full-length Human OX40 [1], the “OX40 Reporter Assay EC50” value stood at 10 pM and the “OX40 Reporter Assay Max induction” value came out at 1.93e+06. Also, in the assay with Full-length Human 4-1BB [2], the “4-1BB Reporter Assay EC50” value worked out at 17 pM and the “4-1BB Reporter Assay Max induction” value is 6.65e+06. In the assay with Full-length Human OX40 [3], the 50% effective concentration (EC50) (usually the concentration giving half of the maximal effect) is 360 pM and the “max MFI” value came to 10400 MFI. In the assay with Human OX40 ECD-AFH [4], the Kd (usually the concentration at which binding is half-saturated) was found to be 400 pM, the koff (usually the first-order rate constant of dissociation) came out at 0.00028 s⁻¹ and the kon (usually a measure of how fast the partners come together) was found to be 770000 M⁻¹ s⁻¹. Moreover, in the assay with Human 4-1BB ECD-AFH [5], the affinity, expressed as Kd, was 14000 pM; the off-rate (koff) came out at 0.0046 s⁻¹; the kon is 330000 M⁻¹ s⁻¹. In the assay with Full-length Human 4-1BB [6], a half-maximal response (EC50) required 250 pM and the “max MFI” value is 4900 MFI. Also, the EC50 (read off the curve) (usually the concentration needed to bring the measured effect to its halfway point) with Full-length Cyno 4-1BB [7] was roughly 300 pM. The “EC50 (read off the curve)” value in the assay with Full-length Cyno OX40 [8] is roughly 800 pM.

B2: FXX01121 (bispecific antibody)
chain: EVQLVQSGAEVKKPGASVKVSCKASGYTFTSYWMNWVRQAPGQGLEWMGNIYPSGGSTNYAQKFQGRVTMTVDTSTSTVYMELSSLRSEDTAVYYCASFSDGYYAYAMDYWGQGTLVTVSSGGGGSGGGGSGGGGSGGGGSEIVMTQSPATLSLSPGERATLSCRASQSVSSYLNWYQQKPGQAPRLLIYYASRRHTGIPARFSGSGSGTDFTLTISSLQPEDFAVYYCQQGYNLPYTFGQGTKVEIKEPKSSDKTHTCPPCPAPPAAAPSVFLFPPKPKDTLMISRTPEVTCVVVDVSHEDPEVKFNWYVDGVEVHNAKTKPREEQYNSTYRVVSVLTVLHQDWLNGKEYKCAVSNKALPAPIEKTISKAKGQPREPQVYTLPPSRDELTKNQVSLTCLVKGFYPSDIAVEWESNGQPENNYKTTPPVLDSDGSFFLYSKLTVDKSRWQQGNVFSCSVMHEALHNHYTQKSLSLSPGGGGSPSSYVLTQPPSVSVAPGKTARITCGGNNIGSKSVNWFQQKPGQAPVLVVYDDSGRPSGIPKRFSGSTSGNTATLTISRVEAGDEADYYCQVWDSSSDHVVFGGGTKLTVLGGGGSGGGGSGGGGSGGGGSQVQLVESGGGVVQPGRSLRLSCAASGFTLSYYGMHWVRQAPGKGLEWVAAISHDGSDKYYADSVKGRFTISRDNSKNRLYLQMNSLRAEDTAVYYCSNDQFDPWGQGTLVTVSSR
notes: ADAPTIR anti-4-1BB x anti-OX40, pI variant
Consider B2, for which, in the assay with Full-length Human OX40 [9], the “OX40 Reporter Assay EC50” value came out at 16 pM and the “OX40 Reporter Assay Max induction” value is 6.19e+06. In addition, in the assay with Full-length Human 4-1BB [10], the “4-1BB Reporter Assay EC50” value worked out at 16 pM and the “4-1BB Reporter Assay Max induction” value turned out to be 1.43e+06. In the assay with Human OX40 ECD-AFH [11], this molecule registered a Kd of 100 pM, a koff of 0.00013 s⁻¹ and a kon of 1.2e+06 M⁻¹ s⁻¹. In the assay with Cyno OX40-AFH, the dissociation constant Kd is 200 pM, the koff turned out to be 0.00018 s⁻¹ and the kon worked out at 1e+06 M⁻¹ s⁻¹. In the assay with Human 4-1BB ECD-AFH [12], this molecule had a Kd of 9000 pM, a koff of 0.0036 s⁻¹ and a kon of 390000 M⁻¹ s⁻¹. Moreover, in the assay with Cyno 4-1BB ECD-AFH, the equilibrium dissociation constant (Kd) worked out at 30000 pM, the koff came out at 0.013 s⁻¹ and the kon was found to be 420000 M⁻¹ s⁻¹. For the same molecule, the “EC50 (read off the curve)” value with Full-length Cyno 4-1BB [13] was roughly 300 pM. Besides, the “EC50 (read off the curve)” value with Full-length Cyno OX40 [14] is 1000 to 2000 pM.
